Source: patent US20230192839A1, “ANTIBODIES HAVING CONDITIONAL AFFINITY AND METHODS OF USE THEREOF” (PFIZER INC., priority 2017, published 2023)

Legend:
[1] = system: human epidermal growth factor receptor (EGFR); experiment: Biacore SPR binding kinetics of anti-EGFR scFv-Fc clones with or without 10 µM MTX; conditions: 37° C.; for koff, kinetics toward antigen with 0 µM MTX / kon, kinetics toward antigen with 0 µM MTX / koff, kinetics toward antigen with 10 µM MTX / kon, kinetics toward antigen with 10 µM MTX: pH 7.4, scFv-Fc; for Kd / koff, kinetics toward antigen with 10 µM MTX / kon, kinetics toward antigen with 10 µM MTX: 10 µM MTX; for Kd: pH 7.4, koff/kon, or estimated from binding response / limit of detection for weak interactions, read-out: KD, kinetics toward antigen with 10 µM MTX
Protocol: All binding kinetics analysis was performed on label-free Biacore surface plasmon biosensors (Biacore T200™ from GE Life Sciences) at 37° C. in 10 mM Hepes pH 7.4, 150 mM NaCl, 0.05% Tween-20 (HBST+), with or without 10 µM MTX. The Biacore data were processed in Biacore T200 Evaluation Software, and the data were double-referenced (Myszka, 1999, J Mol Recognit 12(5):279-284) and fit globally to a simple Langmuir with mass transport model to determine the equilibrium dissociation constant, KD, from the ratio of the kinetic rate constants (KD = koff/kon). In some cases the binding of antigen was very low (or not detectable) in the presence of 10 µM MTX and as a result kinetic rate constants could not be accurately determined. In these cases, a KD (or KD limit) was estimated based on the binding response at the highest analyte concentration tested or based on the typical limit of detection for a Biacore T200. […]

human CD33 = experiment: Biacore SPR binding kinetics of anti-CD33 scFv-Fc clones with or without 10 µM MTX; conditions: CD33, 37° C., pH 7.4; for koff, kinetics toward antigen with 0 µM MTX / kon, kinetics toward antigen with 0 µM MTX: scFv-Fc
Source text: The first 4 rounds of panning used biotinylated CD33 antigen captured on streptavidin or neutravidin coated 96-well plates. […] 1536 clones were randomly chosen from the 4th and 5th round of panning against the CD33 antigen and their binding specificity determined by phage ELISA. Clones that specifically bound to CD33 were sequenced and all unique clones were subjected to a phage competition ELISA to assess their relative affinities to CD33 and sensitivity to MTX by measuring their binding strengths in the presence or absence of 10 µM (micromolar) MTX (i.e. in 0 or 10 µM MTX).
All binding kinetics analysis was performed on label-free Biacore surface plasmon biosensors (Biacore T200™ from GE Life Sciences) at 37° C. in 10 mM Hepes pH 7.4, 150 mM NaCl, 0.05% Tween-20 (HBST+), with or without 10 µM MTX. The Biacore data were processed in Biacore T200 Evaluation Software, and the data were double-referenced (Myszka, 1999, J Mol Recognit 12(5):279-284) and fit globally to a simple Langmuir with mass transport model to determine the equilibrium dissociation constant, KD, from the ratio of the kinetic rate constants (KD = koff/kon). In some cases the binding of antigen was very low (or not detectable) in the presence of 10 µM MTX and as a result kinetic rate constants could not be accurately determined. In these cases, a KD (or KD limit) was estimated based on the binding response at the highest analyte concentration tested or based on the typical limit of detection for a Biacore T200.

Molecule	koff, kinetics toward antigen with 0 µM MTX [1]	kon, kinetics toward antigen with 0 µM MTX [1]	Kd [1]	koff, kinetics toward antigen with 10 µM MTX [1]	kon, kinetics toward antigen with 10 µM MTX [1]	koff, kinetics toward antigen with 0 µM MTX (human CD33)	kon, kinetics toward antigen with 0 µM MTX (human CD33)	Kd (human CD33; 10 µM MTX, koff/kon, or estimated from binding response / limit of detection for weak interactions, read-out: KD, kinetics toward antigen with 10 µM MTX)
P02_E11: anti-CD33 clone with conditional affinity; VH SEQ ID NO: 15, VL SEQ ID NO: 16; also as scFv in CAR (antibody, V domains shown, Synthetic Antibody, also as scFv in CAR) VH: QVQLVESGGGLVQAGGSLRLSCAASRRSSRSWAMHWVRQAPGKGLEWVAVISYDGRLKYYADSVKGRFTISRDNAEYLVYLQMNSLRAEDTAVYYCAAEASTDNGLDYWGQGTLVTVSS VL: DIQMTQSPSSLSASVGDRVTITCRASQTISRHLNWYQQKPGKAPKLLIYSASSLASGVPSRFSGSGSGTDFTLTISSLQPEDFATYYCQQSHSAGTFGQGTKVEIK						0.0038 s⁻¹	58000 M⁻¹ s⁻¹	
P02_H01: anti-CD33 clone with conditional affinity; VH SEQ ID NO: 17, VL SEQ ID NO: 18 (antibody, V domains shown, Synthetic Antibody) VH: QVQLVESGGGLVQAGGSLRLSCAASRRSSRSWAMHWVRQAPGKGLEWVAVISYDGRLKYYADSVKGRFTISRDNAEYLVYLQMNSLRAEDTAVYYCAAGSGGGDGLDVWGQGTLVTVSS VL: DIQMTQSPSSLSASVGDRVTITCRASQTISSYLNWYQQKPGKAPKLLIYSSSTLQGGVPSRFSGSGSGTDFTLTISSLQPEDFATYYCQQSYSSGTFGQGTKVEIK						0.037 s⁻¹	28000 M⁻¹ s⁻¹	
P01_B06: anti-EGFR reference clone, less than 2-fold MTX effect; VH SEQ ID NO: 129, VL SEQ ID NO: 130 (antibody, V domains shown, Synthetic Antibody) VH: QVQLVESGGGLVQAGGSLRLSCAASRRSSRSWAMHWVRQAPGKGLEWVAVISYDGRLKYYADSVKGRFTISRDNAEYLVYLQMNSLRAEDTAVYYCAADTSMFASYDPMDVWGQGTLVTVSS VL: QSVLTQPPSASGTPGQRVTISCSGSSSNIGRNYVNWYQQLPGTAPKLLIYRDDHRPSGVPDRFSGSKSGTSASLAISGLRSEDEADYYCASWDDTLSGWVFGTGTKLTVL	0.024 s⁻¹	100000 M⁻¹ s⁻¹		0.026 s⁻¹	100000 M⁻¹ s⁻¹			
P01_F02: anti-EGFR clone with conditional affinity; VH SEQ ID NO: 119, VL SEQ ID NO: 120; also as scFv in CAR (antibody, V domains shown, Synthetic Antibody, also as scFv in CAR) VH: QVQLVESGGGLVQAGGSLRLSCAASRRSSRSWAMHWVRQAPGKGLEWVAVISYDGRLKYYADSVKGRFTISRDNAEYLVYLQMNSLRAEDTAVYYCAADVESALAYGEPYHHMDVWGQGTLVTVSS VL: QSVLTQPPSASGTPGQRVTISCSGSSSNIGRNYVYWYQQLPGTAPKLLIYRTSQRPSGVPDRFSGSKSGTSASLAISGLRSEDEADYYCATWDDSLSGWVFGTGTKLTVL	0.011 s⁻¹	61000 M⁻¹ s⁻¹	> 9.41 µM					

The next lines start with the values.

koff, kinetics toward antigen with 0 µM MTX [1]	kon, kinetics toward antigen with 0 µM MTX [1]	Kd [1]	koff, kinetics toward antigen with 10 µM MTX [1]	kon, kinetics toward antigen with 10 µM MTX [1]	koff, kinetics toward antigen with 0 µM MTX (human CD33)	kon, kinetics toward antigen with 0 µM MTX (human CD33)	Kd (human CD33; 10 µM MTX, koff/kon, or estimated from binding response / limit of detection for weak interactions, read-out: KD, kinetics toward antigen with 10 µM MTX)	Molecule
0.27 s⁻¹	330000 M⁻¹ s⁻¹	> 9.37 µM						P07_H08: anti-EGFR clone with conditional affinity; VH SEQ ID NO: 121, VL SEQ ID NO: 122; also as scFv in CAR (antibody, V domains shown, Synthetic Antibody, also as scFv in CAR) VH: QVQLVESGGGLVQAGGSLRLSCAASRRSSRSWAMHWVRQAPGKGLEWVAVISYDGRLKYYADSVKGRFTISRDNAEYLVYLQMNSLRAEDTAVYYCAAGFDWGWDSSDIYSAMDYWGQGTLVTVSS VL: DIQMTQSPSSLSASVGDRVTITCRASQNIGRYLHWYQQKPGKAPKLLIYSASNLQSGVPSRFSGSGSGTDFTLTISSLQPEDFATYYCQQSYSSPFTFGQGTKVEIK
0.00067 s⁻¹	110000 M⁻¹ s⁻¹		0.00072 s⁻¹	29000 M⁻¹ s⁻¹				P14_E03: anti-EGFR clone with conditional affinity; VH SEQ ID NO: 125, VL SEQ ID NO: 126 (antibody, V domains shown, Synthetic Antibody) VH: QVQLVESGGGLVQAGGSLRLSCAASRRSSRSWAMHWVRQAPGKGLEWVAVISYDGRLKYYADSVKGRFTISRDNAEYLVYLQMNSLRAEDTAVYYCAAAPRVDWSDVSSGIDYWGQGTLVTVSS VL: QSVLTQPPSASGTPGQRVTISCSGSISNIGTNNVYWYQQLPGTAPKLLIYRNNQRPSGVPDRFSGSKSGTSASLAISGLRSEDEADYYCSAWDDSLSGVVFGTGTKLTVL
					0.0094 s⁻¹	71000 M⁻¹ s⁻¹	> 10.9 µM	P03_G12: anti-CD33 clone with conditional affinity; VH SEQ ID NO: 21, VL SEQ ID NO: 22 (antibody, V domains shown, Synthetic Antibody) VH: QVQLVESGGGLVQAGGSLRLSCAASRRSSRSWAMHWVRQAPGKGLEWVAVISYDGRLKYYADSVKGRFTISRDNAEYLVYLQMNSLRAEDTAVYYCAADPTEGWSYLDYWGQGTLVTVSS VL: DIQMTQSPSSLSASVGDRVTITCRASQGISSYLNWYQQKPGKAPKLLIYGASRLQSGVPSRFSGSGSGTDFTLTISSLQPEDFATYYCQQGYSSGTFGQGTKVEIK
0.028 s⁻¹	120000 M⁻¹ s⁻¹		0.05 s⁻¹	87000 M⁻¹ s⁻¹				P05_A11: anti-EGFR clone with conditional affinity; VH SEQ ID NO: 133, VL SEQ ID NO: 134; also as scFv in CAR (antibody, V domains shown, Synthetic Antibody, also as scFv in CAR) VH: QVQLVESGGGLVQAGGSLRLSCAASRRSSRSWAMHWVRQAPGKGLEWVAVISYDGRLKYYADSVKGRFTISRDNAEYLVYLQMNSLRAEDTAVYYCAASDDADIFDDYSYGAMDYWGQGTLVTVSS VL: QSVLTQPPSASGTPGQRVTISCSGSSSNIGRNYVYWYQQLPGTAPKLLIYMTSQRPSGVPDRFSGSKSGTSASLAISGLRSEDEADYYCASWDDNLRAWVFGTGTKLTVL
